{
  "source": "paper PMC8285477",
  "about": "“The molecular basis of regulation of bacterial capsule assembly by Wzc” (Nature Communications, 2021)",
  "molecules": {"B1": {"name": "Wzb treated Wzc (enzyme)", "chain": "MTSVTSKQSTILGSDEIDLGRVIGELIDHRKLIISITSVFTLFAILYALLATPIYETDALIQIEQKQGNAILSSLSQVLPDGQPQSAPETALLQSRMILGKTIDDLNLQIQIEQKYFPVIGRGLARLMGEKPGNIDITRLYLPDSDDISNNTPSIILTVKDKENYSINSDGIQLNGVVGTLLNEKGISLLVNEIDAKPGDQFVITQLPRLKAISDLLKSFSVADLGKDTGMLTLTLTGDNPKRISHILDSISQNYLAQNIARQAAQDAKSLEFLNQQLPKVRAELDSAEDKLNAYRKQKDSVDLNMEAKSVLDQIVNVDNQLNELTFREAEVSQLYTKEHPTYKALMEKRQTLQEEKSKLNKRVSSMPSTQQEVLRLSRDVESGRAVYLQLLNRQQELNIAKSSAIGNVRIIDNAVTDPNPVRPKKTIIIVIGVVLGLIVSVVLVLFQVFLRRGIESPEQLEEIGINVYASIPISEWLTKNARQSGKVRKNQSDTLLAVGNPADLAVEAIRGLRTSLHFAMMEAKNNVLMISGASPSAGKTFISSNLAATIAITGKKVLFIDADLRKGYAHKMFGHKNDKGLSEFLSGQAAAEMIIDKVEGGGFDYIGRGQIPPNPAELLMHPRFEQLLNWASQNYDLIIIDTPPILAVTDAAIIGRYAGTCLLVARFEKNTVKEIDVSMKRFEQSGVVVKGCILNGVVKKASSYYRYGHNHYGYSYYDKK", "modifications": "dephosphorylated by phosphatase Wzb; about 0.1% octameric particles; C-terminal His6 omitted; the PDB entity is the K540M construct, reverted to K540 / dephosphorylated by phosphatase Wzb; about 0.1%"}},
  "key": {"[1]": {"target": "Wzc^K540M triple (715, 717 and 718) Tyr to Glu mutant (E. coli E69 (O9a:K30)) (UniProt P76387)", "test": "EM (kind not stated); particles of purified Tyr to Glu mutants of Wzc^K540M on EM grids, percentage of octamers (Supplementary Fig. 8a)"}, "[2]": {"target": "Wzc^K540M (E. coli E69 (O9a:K30))", "test": "cryo-EM structure; purified protein ~2 mg/ml in LMNG, apo and with ADP and Mg2+; C1 and C8 reconstructions"}, "[3]": {"target": "Wzc^K540M (E. coli E69 (O9a:K30))", "test": "negative-stain EM; purified protein around 0.05 mg/ml on carbon-coated grids, 0.75% uranyl formate"}, "[4]": {"target": "Wzc^K540M double (717 and 718) Tyr to Glu mutant (E. coli E69 (O9a:K30)) (UniProt P76387)", "test": "EM (kind not stated); particles of purified Tyr to Glu mutants of Wzc^K540M on EM grids, percentage of octamers (Supplementary Fig. 8a)"}, "[5]": {"target": "Wzc^K540MΔMotif3 (E. coli E69 (O9a:K30)) (UniProt P76387)", "test": "cryo-EM 2D classification of particles; purified protein ~1.8-2 mg/ml vitrified on grids, reference-free 2D class averages"}, "[6]": {"target": "Wzc^K540M4YE (E. coli E69 (O9a:K30))", "test": "cryo-EM structure; purified protein ~2 mg/ml in LMNG, apo and with ADP and Mg2+; C1 and C8 reconstructions"}, "[7]": {"target": "Wzc^K540M4YE (E. coli E69 (O9a:K30))", "test": "cryo-EM 2D classification of particles; purified protein ~1.8-2 mg/ml vitrified on grids, reference-free 2D class averages"}, "[8]": {"target": "Wzb treated Wzc (E. coli E69 (O9a:K30), UniProt P76387 1-720)", "test": "cryo-EM 2D classification of particles; purified protein ~1.8-2 mg/ml vitrified on grids, reference-free 2D class averages", "conditions": "both partners purified"}},
  "data": [
    {"molecule": "Wzc^K540M triple (715, 717 and 718) Tyr to Glu mutant (from UniProt P76387 1-720) (enzyme)", "values": [
      {"measurement": "stoichiometry N", "setting": "[1]", "result": 8}
    ]},
    {"molecule": "Wzc^K540M (from UniProt P76387 1-720) (enzyme)", "values": [
      {"measurement": "stoichiometry N", "setting": "[2]", "result": 8},
      {"measurement": "stoichiometry N", "setting": "[3]", "result": 8}
    ]},
    {"molecule": "Wzc^K540M double (717 and 718) Tyr to Glu mutant (from UniProt P76387 1-720) (enzyme)", "values": [
      {"measurement": "stoichiometry N", "setting": "[4]", "result": 8}
    ]},
    {"molecule": "Wzc^K540MΔMotif3 (from UniProt P76387 1-720) (enzyme)", "values": [
      {"measurement": "stoichiometry N", "setting": "[5]", "result": 8}
    ]},
    {"molecule": "Wzc^K540M4YE (from UniProt P76387 1-720) (enzyme)", "values": [
      {"measurement": "stoichiometry N", "setting": "[6]", "result": 8},
      {"measurement": "percent of particles that are octamers", "setting": "[7]", "result": 50, "unit": "%"}
    ]},
    {"molecule": "B1", "values": [
      {"measurement": "stoichiometry N", "setting": "[8]", "result": 8}
    ]}
  ]
}
